Drawing on article PMC3341379, this text covers stoichiometry N (triskelia per cage) for one substance.

This test concerns the target Clathrin triskelion with attached Gd-DTPA-ITC, as assembled into clathrin cages (rat (endogenous in rat liver and brain)) (UniProt P11442). In words: negative-stain transmission electron microscopy; cages assembled from modified triskelia mixed with AP-2 proteins 3:1 (v/v), dialysed against 50 mM MES Na pH 6.5, 100 mM NaCl, 2 mM DTT at 4°C; cages pelleted at 60,000 rpm and resuspended in 20 mM MES Na pH 6.2, 2 mM DTT; 0.05 mg/ml on carbon-coated grids, 1% uranyl acetate.

“Clathrin triskelion with attached Gd-DTPA-ITC, as assembled into clathrin cages (from UniProt P11442 1-1675; P08081 1-248) (complex)” returned a stoichiometry N (triskelia per cage) of 36.
